Assay results reported in IntAct's records for PubMed 11259577.

B1: Insulin receptor substrate 1 (Rattus norvegicus (Rat)), P35570 (parent)
chain: MASPPDTDGFSDVRKVGYLRKPKSMHKRFFVLRAASEAGGPARLEYYENEKKWRHKSSAPKRSIPLESCFNINKRADSKNKHLVALYTRDEHFAIAADSEAEQDSWYQALLQLHNRAKAHHDGAGGGCGGSCSGSSGVGEAGEDLSYDTGPGPAFKEVWQVILKPKGLGQTKNLIGIYRLCLTSKTISFVKLNSEAAAVVLQLMNIRRCGHSENFFFIEVGRSAVTGPGEFWMQVDDSVVAQNMHETILEAMRAMSDEFRPRTKSQSSSSCSNPISVPLRRHHLNNPPPSQVGLTRRSRTESITATSPASMVGGKPGSFRVRASSDGEGTMSRPASVDGSPVSPSTNRTHAHRHRGSSRLHPPLNHSRSIPMPSSRCSPSATSPVSLSSSSTSGHGSTSDCLFPRRSSASVSGSPSDGGFISSDEYGSSPCDFRSSFRSVTPDSLGHTPPARGEEELSNYICMGGKGASTLTAPNGHYILSRGGNGHRYIPGATMGTSPALTGDEAAGAADLDNRFRKRTHSAGTSPTISHQKTPSQSSVVSIEEYTEMMPAAYPPGGGSGGRLPGYRHSAFVPTHSYPEEGLEMHHLERRGGHHRPDSSNLHTDDGYMPMSPGVAPVPSNRKGNGDYMPMSPKSVSAPQQIINPIRRHPQRVDPNGYMMMSPSGSCSPDIGGGSCSSSSISAAPSGSSYGKPWTNGVGGHHTHALPHAKPPVESGGGKLLPCTGDYMNMSPVGDSNTSSPSECYYGPEDPQHKPVLSYYSLPRSFKHTQRPGEPEEGARHQHLRLSSSSGRLRYTATAEDSSSSTSSDSLGGGYCGARPESSVTHPHHHALQPHLPRKVDTAAQTNSRLARPTRLSLGDPKASTLPRVREQQQQQQQQQQSSLHPPEPKSPGEYVNIEFGSGQPGYLAGPATSRSSPSVRCLPQLHPAPREETGSEEYMNMDLGPGRRATWQESGGVELGRVGPAPPGAASICRPTRSVPNSRGDYMTMQIGCPRQSYVDTSPVAPVSYADMRTGIAAEKVSLPRTTGAAPPPSSTASASASVTPQGAAEQAAHSSLLGGPQGPGGMSAFTRVNLSPNHNQSAKVIRADTQGCRRRHSSETFSAPTRAANTVSFGAGAAGGGSGGGSEDVKRHSSASFENVWLRPGDLGGASKESAPGCGAAGGLEKSLNYIDLDLVKDVKQHPQDCPSQQQSLPPPPPHQPLGSNEGSSPRRSSEDLSTYASINFQKQPEDRQ
partner: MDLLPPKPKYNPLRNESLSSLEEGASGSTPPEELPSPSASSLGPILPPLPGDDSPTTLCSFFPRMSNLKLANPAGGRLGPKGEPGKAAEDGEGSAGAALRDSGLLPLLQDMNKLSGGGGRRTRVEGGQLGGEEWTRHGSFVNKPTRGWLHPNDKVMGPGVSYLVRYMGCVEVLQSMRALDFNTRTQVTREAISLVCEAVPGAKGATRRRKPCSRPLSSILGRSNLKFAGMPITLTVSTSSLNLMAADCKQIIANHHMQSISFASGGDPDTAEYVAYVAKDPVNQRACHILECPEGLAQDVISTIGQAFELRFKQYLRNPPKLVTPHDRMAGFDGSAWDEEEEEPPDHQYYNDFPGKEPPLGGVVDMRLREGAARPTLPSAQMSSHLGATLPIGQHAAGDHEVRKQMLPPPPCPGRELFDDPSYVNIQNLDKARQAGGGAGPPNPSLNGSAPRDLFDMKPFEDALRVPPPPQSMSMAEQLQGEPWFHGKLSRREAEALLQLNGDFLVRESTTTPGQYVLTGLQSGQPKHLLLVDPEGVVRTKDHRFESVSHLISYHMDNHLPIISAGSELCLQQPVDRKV

Variants of: B1
Conditions: with shc1_mouse Shc1, P98083

Variant	effect of a mutation on the interaction
Y895F	with no effect
